Columns and labels:
[1] = target: human MSR1 endogenously expressed on PMA-differentiated THP-1 cells (human) (UniProt P21757); experiment: cell-based or functional assay
[2] = target: human MSR1 endogenously expressed on PMA-differentiated THP-1 cells (human) (UniProt P21757); experiment: imaging of PMA-differentiated THP-1 cells, 10 ug/mL antibody, Alexa 488 secondary
[3] = target: full length human MSR1 with a C-terminal Myc tag on HEK293.Myc.hMSR1 cells (human) (UniProt P21757); experiment: ECL cell binding, HEK293.Myc.hMSR1
[4] = target: full length monkey MSR1 on HEK293.mfMSR1 cells (Macaca fascicularis); experiment: ECL cell binding, HEK293.mfMSR1
[5] = target: endogenously expressed human MSR1 on PMA-treated THP-1 cells (human) (UniProt P21757); experiment: ECL cell binding, PMA-treated THP-1
[6] = target: His9-hMSR1, human MSR1 extracellular domain with an N-terminal 9-Histidine tag (human) (UniProt P21757); experiment: competition ELISA on coated His9-hMSR1; competitor biot-AGE-BSA; antibody 300 nM
[7] = target: His9-hMSR1, human MSR1 extracellular domain with an N-terminal 9-Histidine tag (human) (UniProt P21757); experiment: competition ELISA on coated His9-hMSR1; competitor Ox-LDL 10 nM; antibody 1 µM
[8] = target: His9-hMSR1, human MSR1 extracellular domain with an N-terminal 9-Histidine tag (human) (UniProt P21757); experiment: competition ELISA on coated His9-hMSR1; competitor Ac-LDL; antibody 100 nM

human MSR1 endogenously expressed on PMA-differentiated THP-1 cells (human), sequence (P21757 whole entry): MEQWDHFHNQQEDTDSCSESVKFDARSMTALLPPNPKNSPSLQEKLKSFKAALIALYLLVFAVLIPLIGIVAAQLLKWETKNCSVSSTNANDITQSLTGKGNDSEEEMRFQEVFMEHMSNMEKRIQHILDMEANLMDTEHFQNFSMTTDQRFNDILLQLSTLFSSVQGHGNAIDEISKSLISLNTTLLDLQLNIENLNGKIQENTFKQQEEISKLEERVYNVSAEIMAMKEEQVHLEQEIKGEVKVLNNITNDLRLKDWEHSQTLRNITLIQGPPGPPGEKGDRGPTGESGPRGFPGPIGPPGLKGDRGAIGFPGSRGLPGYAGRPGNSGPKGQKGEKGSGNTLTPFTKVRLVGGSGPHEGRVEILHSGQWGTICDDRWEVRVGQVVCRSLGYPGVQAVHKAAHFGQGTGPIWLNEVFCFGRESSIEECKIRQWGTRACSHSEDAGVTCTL
His9-hMSR1, human MSR1 extracellular domain with an N-terminal 9-Histidine tag (human), sequence (P21757 other isoform, or with tags, fused parts or gaps): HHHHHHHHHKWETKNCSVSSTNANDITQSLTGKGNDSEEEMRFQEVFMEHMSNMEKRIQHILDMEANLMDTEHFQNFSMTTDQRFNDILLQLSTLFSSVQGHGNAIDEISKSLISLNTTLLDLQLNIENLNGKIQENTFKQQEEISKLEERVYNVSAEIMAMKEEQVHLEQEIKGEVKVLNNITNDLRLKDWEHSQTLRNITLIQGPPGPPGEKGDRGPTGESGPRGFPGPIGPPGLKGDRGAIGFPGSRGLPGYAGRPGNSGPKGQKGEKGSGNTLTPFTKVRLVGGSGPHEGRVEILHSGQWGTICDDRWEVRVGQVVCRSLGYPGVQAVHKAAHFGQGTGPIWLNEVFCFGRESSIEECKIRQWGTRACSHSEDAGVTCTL
full length monkey MSR1 on HEK293.mfMSR1 cells (Macaca fascicularis), sequence (chain, as listed by the source): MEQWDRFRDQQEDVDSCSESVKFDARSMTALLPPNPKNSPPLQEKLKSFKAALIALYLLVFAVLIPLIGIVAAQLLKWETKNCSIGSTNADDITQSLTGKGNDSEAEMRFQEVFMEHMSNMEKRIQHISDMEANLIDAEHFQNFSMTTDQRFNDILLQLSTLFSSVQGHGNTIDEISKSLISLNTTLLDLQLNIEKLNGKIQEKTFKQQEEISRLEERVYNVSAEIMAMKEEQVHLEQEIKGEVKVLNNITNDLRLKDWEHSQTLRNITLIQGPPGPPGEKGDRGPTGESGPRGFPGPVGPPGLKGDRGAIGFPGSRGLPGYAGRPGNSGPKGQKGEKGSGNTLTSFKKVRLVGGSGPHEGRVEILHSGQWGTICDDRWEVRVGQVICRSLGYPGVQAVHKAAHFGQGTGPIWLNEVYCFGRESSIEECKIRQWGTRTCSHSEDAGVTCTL
endogenously expressed human MSR1 on PMA-treated THP-1 cells (human), sequence (P21757 whole entry, the tested form may be a part): as the sequence (P21757 whole entry) above
full length human MSR1 with a C-terminal Myc tag on HEK293.Myc.hMSR1 cells (human), sequence (P21757 whole entry): as above

| Substance | binding signal ratio to isotype control (11 nM) [3] [fold] | binding signal ratio to isotype control (11 nM) [4] [fold] | binding signal ratio to isotype control (11 nM) [5] [fold] | % Blocking [6] [%] | % Blocking [7] [%] | % Blocking [8] [%] | further results |
| --- | --- | --- | --- | --- | --- | --- | --- |
| Isotype control (internalization assay of Table 19) (antibody) |  |  |  |  |  |  | Total Internalized RFU [1]: 1.7e+06 RFU; Total Binding at 4° C. [2]: 186000 RFU; Total Binding at 37° C. [2]: 1.09e+06 RFU |
| hIgG1 Isotype Control (antibody) | 1 | 1 | 1 |  |  |  |  |
| hIgG1 isotype control (competition ELISA of Table 20) (antibody) |  |  |  | 4 | 3 | -8 |  |
| mIgG1 isotype control (competition ELISA of Table 20) (antibody) |  |  |  | 7 | 16 | -4 |  |
| mIgG Isotype Control (antibody) | 1 | 1 | 1 |  |  |  |  |

Source: patent publication US20200368361A1
